Here are results for one substance from US20050048600A1.

For this test, the target named is human LH3 protein with His-tag at the amino-terminus, produced in Sf9 cells (human) (UniProt O60568). The experiment in a line: cell-based or functional assay.
Chain of human LH3 protein with His-tag at the amino-terminus, produced in Sf9 cells (human) (O60568 25-738): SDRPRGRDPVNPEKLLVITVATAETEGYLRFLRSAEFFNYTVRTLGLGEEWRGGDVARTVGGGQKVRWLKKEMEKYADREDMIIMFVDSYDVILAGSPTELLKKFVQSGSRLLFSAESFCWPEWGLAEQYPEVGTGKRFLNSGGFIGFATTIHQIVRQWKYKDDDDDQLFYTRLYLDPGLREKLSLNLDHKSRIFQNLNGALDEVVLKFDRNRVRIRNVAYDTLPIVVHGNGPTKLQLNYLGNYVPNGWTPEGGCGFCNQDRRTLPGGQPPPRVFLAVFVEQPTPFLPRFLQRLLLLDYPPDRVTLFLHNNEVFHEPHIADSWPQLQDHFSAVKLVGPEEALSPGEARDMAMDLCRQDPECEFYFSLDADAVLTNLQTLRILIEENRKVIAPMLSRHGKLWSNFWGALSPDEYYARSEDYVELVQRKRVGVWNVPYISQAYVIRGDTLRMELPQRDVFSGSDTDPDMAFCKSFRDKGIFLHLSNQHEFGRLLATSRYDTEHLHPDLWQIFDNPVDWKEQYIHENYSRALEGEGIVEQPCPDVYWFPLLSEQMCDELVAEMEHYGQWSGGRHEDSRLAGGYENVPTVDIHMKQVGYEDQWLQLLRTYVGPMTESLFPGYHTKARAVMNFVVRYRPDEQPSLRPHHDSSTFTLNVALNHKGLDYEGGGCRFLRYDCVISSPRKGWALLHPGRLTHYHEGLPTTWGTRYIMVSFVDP

For the substance “monoclonal antibodies against His-tag (Clontech) (antibody)”, the GGT activity in the presence of antibody (% of activity with nonimmune serum) is 100%.
